Measurements as given in US20250059282A1 (University of Texas, published 2025).
Read-outs that look alike come from different tables or passages of the source.

What was measured:
Human PD-L1-HIS [1] = biological target: T1, Human PD-L1-HIS (human, UniProt Q9NZQ7 19-238); test: ForteBio, IgG, monovalent
T1 construct: also called HIS-tagged monovalent PD-L1; His-tagged human PD-L1; not shown: His tag

Human PD-L2-HIS [2] = biological target: T2, Human PD-L2-HIS (human, UniProt Q9BQ51 20-220); test: ForteBio, IgG, monovalent
T2 construct: also called His-tagged human PD-L2; not shown: His tag
T2 sequence: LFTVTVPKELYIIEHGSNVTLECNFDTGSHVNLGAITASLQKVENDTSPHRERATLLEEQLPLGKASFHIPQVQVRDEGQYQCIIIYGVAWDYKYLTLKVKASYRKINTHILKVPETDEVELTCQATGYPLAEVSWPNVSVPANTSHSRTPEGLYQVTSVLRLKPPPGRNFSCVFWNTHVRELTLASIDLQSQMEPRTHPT

Mouse PD-L2-Fc [3] = biological target: T3, Mouse PD-L2-Fc (mouse, UniProt Q9WUL5 20-219, limits assumed); test: ForteBio, IgG, avid
T3 construct: also called murine PD-L2; not shown: Fc
T3 sequence (looked up): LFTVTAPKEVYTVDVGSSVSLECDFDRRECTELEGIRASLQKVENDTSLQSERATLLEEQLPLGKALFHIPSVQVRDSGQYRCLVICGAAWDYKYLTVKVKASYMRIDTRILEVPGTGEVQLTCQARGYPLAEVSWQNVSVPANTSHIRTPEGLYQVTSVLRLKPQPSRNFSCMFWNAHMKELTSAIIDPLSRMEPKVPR

Cyno PD-L2-Fc [4] = biological target: T4, Cyno PD-L2-Fc (cynomolgus, UniProt A0A2K5U5Z4 20-220); test: ForteBio, IgG, avid
T4 construct: also called cynomolgus PD-L2; not shown: Fc
T4 sequence: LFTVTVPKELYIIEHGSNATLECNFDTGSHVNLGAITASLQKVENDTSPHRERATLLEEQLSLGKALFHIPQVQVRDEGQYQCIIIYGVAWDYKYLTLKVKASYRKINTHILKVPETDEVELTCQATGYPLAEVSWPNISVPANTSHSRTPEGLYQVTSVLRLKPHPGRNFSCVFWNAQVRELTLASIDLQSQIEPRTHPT

Cyno PD-L1-Fc [5] = biological target: T5, Cyno PD-L1-Fc (cynomolgus, UniProt G7PSE7 19-238); test: ForteBio, IgG, avid
T5 construct: also called cynomolgus PD-L1

Mouse PD-L1-Fc [6] = biological target: T6, Mouse PD-L1-Fc (mouse, UniProt Q9EP73 19-239, limits assumed); test: ForteBio, IgG, avid
T6 construct: also called murine PD-L1; not shown: Fc

Human b-PD-L2-His = biological target: T7, Human b-PD-L2-His (human, UniProt Q9BQ51 20-220, biotinylated (b-); sites not stated); test: MSD-SET, Fab, monovalent
T7 construct: Antigen of the MSD-SET measurements; also called biotinylated human PD-L2-His; not shown: His tag
T7 sequence: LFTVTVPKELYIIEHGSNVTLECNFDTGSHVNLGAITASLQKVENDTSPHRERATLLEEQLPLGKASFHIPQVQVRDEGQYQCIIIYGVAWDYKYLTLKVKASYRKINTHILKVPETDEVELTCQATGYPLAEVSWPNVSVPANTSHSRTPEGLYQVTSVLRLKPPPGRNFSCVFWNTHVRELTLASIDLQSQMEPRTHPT
Method: Briefly, solution equilibrium titrations (SET) were performed in PBS +0.1% IgG-Free BSA (PBSF) with antigen held constant at 50 pM and incubated with 3- to 5-fold serial dilutions of Fab starting at 20 nM. Antibodies (20 nM in PBS) were coated onto standard bind MSD®-ECL plates overnight at 4° C. or at room temperature for 30 min. Plates were then blocked by BSA for 30 min with shaking at 700 rpm, followed by three washes with wash buffer (PBSF+0.05% Tween 20). SET samples were applied and incubated on the plates for 150 s with shaking at 700 rpm followed by one wash. Antigen captured on a plate was detected with 250 ng/mL sulfotag-labeled streptavidin in PBSF by incubation on the plate for 3 min. The plates were washed three times with wash buffer and then read on the MSD® Sector Imager 2400 instrument using 1× Read Buffer T with surfactant. The percent free antigen was plotted as a function of titrated antibody in Prism and fit to a quadratic equation to extract the KD. To improve throughput, liquid handling robots were used throughout MSD®-SET experiments, including SET sample preparation.

Human PD-L2-Fc [7] = biological target: T8, Human PD-L2-Fc (human, UniProt Q9BQ51 20-220); test: ForteBio, Fab, monovalent
T8 construct: also called dimeric PD-L2; PD-L2 (dimeric ligand); not shown: human IgG1 Fc constant region
T8 sequence: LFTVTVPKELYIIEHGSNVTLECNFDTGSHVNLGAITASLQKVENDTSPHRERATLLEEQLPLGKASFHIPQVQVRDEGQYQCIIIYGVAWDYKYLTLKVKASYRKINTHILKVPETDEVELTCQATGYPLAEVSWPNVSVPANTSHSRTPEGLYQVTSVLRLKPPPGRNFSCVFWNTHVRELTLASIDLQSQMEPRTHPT
Method: (§1) ForteBio KD measurements—ForteBio affinity measurements were performed on an Octet® RED384 generally as previously described (see, e.g., Estep et al., 2013). Briefly, ForteBio affinity measurements were performed by loading IgGs on-line onto AHQ sensors. Sensors were equilibrated off-line in assay buffer for 30 min and then monitored on-line for 60 seconds for baseline establishment. Sensors with loaded IgGs were exposed to 100 nM antigen for 3 minutes, and afterwards were transferred to assay buffer for 3 min for off-rate measurement. For monovalent affinity assessment Fabs were used instead of IgGs. For this assessment the […] Fc fusion antigen was loaded on-line onto the AHQ sensors. Sensors were equilibrated off-line in assay buffer for 30 min and then monitored on-line for 60 seconds for baseline establishment. Sensors with loaded antigen were exposed to 100 nM Fab for 3 minutes, and afterwards they were transferred to assay buffer for 3 min for off-rate measurement. All kinetics were analyzed using the 1:1 binding model.

Human PD-L1-Fc = biological target: T9, Human PD-L1-Fc (human, UniProt Q9NZQ7 19-238); test: ForteBio, Fab, monovalent
T9 construct: also called dimeric PD-L1; PD-L1 (dimeric ligand); not shown: human IgG1 Fc constant region
Method: as §1

Human PD-L1-HIS [8] = biological target: T1, Human PD-L1-HIS; test: ForteBio, IgG, monovalent; remark: listed apart in the source
Human PD-L2-HIS [9] = biological target: T2, Human PD-L2-HIS; test: ForteBio, IgG, monovalent; remark: listed apart in the source
Mouse PD-L2-Fc [10] = biological target: T3, Mouse PD-L2-Fc; test: ForteBio, IgG, avid; remark: listed apart in the source
Cyno PD-L2-Fc [11] = biological target: T4, Cyno PD-L2-Fc; test: ForteBio, IgG, avid; remark: listed apart in the source
Cyno PD-L1-Fc [12] = biological target: T5, Cyno PD-L1-Fc; test: ForteBio, IgG, avid; remark: listed apart in the source
Mouse PD-L1-Fc [13] = biological target: T6, Mouse PD-L1-Fc; test: ForteBio, IgG, avid; remark: listed apart in the source
Human PD-L2-Fc [14] = biological target: T8, Human PD-L2-Fc; test: ForteBio Octet, Fab, monovalent
Method: as §1

T1 sequence (Q9NZQ7 19-238 limits assumed): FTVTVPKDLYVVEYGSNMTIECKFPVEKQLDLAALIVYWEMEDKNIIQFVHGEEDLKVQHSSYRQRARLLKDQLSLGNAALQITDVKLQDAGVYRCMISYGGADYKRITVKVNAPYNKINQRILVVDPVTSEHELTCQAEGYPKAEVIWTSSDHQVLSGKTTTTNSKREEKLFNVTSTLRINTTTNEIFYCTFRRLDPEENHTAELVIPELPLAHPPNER
T5 sequence (G7PSE7 entry or part of it limits assumed): as the sequence (Q9NZQ7 19-238 limits assumed) above, with A33T, A34S, S62N, R68Q, Q82R, F173L, T185A, T192I, H215L counted along it
T6 sequence (Q9EP73 19-239 limits assumed): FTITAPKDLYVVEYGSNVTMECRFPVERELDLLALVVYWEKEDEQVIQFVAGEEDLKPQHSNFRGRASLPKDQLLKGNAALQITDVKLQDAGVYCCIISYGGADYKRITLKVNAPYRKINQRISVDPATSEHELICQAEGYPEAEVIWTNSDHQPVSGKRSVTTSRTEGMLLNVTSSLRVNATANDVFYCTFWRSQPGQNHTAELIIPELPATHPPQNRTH
T9 sequence (Q9NZQ7 19-238 limits assumed): as the sequence (Q9NZQ7 19-238 limits assumed) above

B1: BiPDL4-24 (antibody, V domains shown)
VH: QVQLVESGGGVVQPGRSLRLSCAASGFTFDEYGMHWVRQAPGKGLEWVAVIGYDGLNKYYADSVKGRFTISRDNSKNTLYLQMNSLRAEDTAVYYCARAGIEYSYAYTDYWGQGTLVTVSS
VL: EIVLTQSPGTLSLSPGERATLSCRASNSVVSSYLAWYQQKPGQAPRLLIYGAASRANGIPDRFSGSGSGTDFTLTISRLEPEDFAVYYCVQFGWWPPRTFGGGTKVEIK
notes: Fourth generation, IgG
B1 gave a Kd (Human PD-L1-HIS [1]) of 7.24 nM, a Kd (Human PD-L2-HIS [2]) of 0.497 nM and a Kd (Mouse PD-L2-Fc [3]) of 6.77 nM. It also gave a Kd (Cyno PD-L2-Fc [4]) of 0.458 nM, a Kd (Cyno PD-L1-Fc [5]) of 0.838 nM and a Kd (Mouse PD-L1-Fc [6]) of 0.677 nM.

B2: BiPDL4-24 Fab (Fab, V domains shown)
VH: QVQLVESGGGVVQPGRSLRLSCAASGFTFDEYGMHWVRQAPGKGLEWVAVIGYDGLNKYYADSVKGRFTISRDNSKNTLYLQMNSLRAEDTAVYYCARAGIEYSYAYTDYWGQGTLVTVSS
VL: EIVLTQSPGTLSLSPGERATLSCRASNSVVSSYLAWYQQKPGQAPRLLIYGAASRANGIPDRFSGSGSGTDFTLTISRLEPEDFAVYYCVQFGWWPPRTFGGGTKVEIK
notes: Fab made by papain digestion of the IgG
Work on B2 yielded a Kd (Human b-PD-L2-His) of 0.12 nM, a Kd (Human PD-L2-Fc [7]) of 0.475 nM and a Kd (Human PD-L1-Fc) of 6.57 nM.

B3: BiPDL3-24 (antibody, V domains shown)
VH: QVQLQQWGAGLLKPSETLSLTCAVYGGSLSGYPWSWIRQPPGKGLEWIGETDVSGWTDYNPSLKSRVTISVDTSKNQFSLKLSSVTAADTAVYYCARDGRRMGTPSFDIWGQGTMVTVSS
VL: DIQMTQSPSSVSASVGDRVTITCRASQGISNFLAWYQQKPGKAPKLLIYAASSLQSGVPSRFSGSGSGTDFTLTISSLQPEDFATYYCQKAVYFPPTFGGGTKVEIK
notes: IgG; also called ADI-37465; 37465
B3 gave a Kd (Human PD-L1-HIS [8]) of 13.4 nM, a Kd (Human PD-L2-HIS [9]) of 0.868 nM and a Kd (Mouse PD-L2-Fc [10]) of 0.553 nM. It also gave a Kd (Cyno PD-L2-Fc [11]) of 0.605 nM, a Kd (Cyno PD-L1-Fc [12]) of 0.396 nM and a Kd (Mouse PD-L1-Fc [13]) of 2.65 nM.

B4: BiPDL3-13 Fab (Fab, V domains shown)
VH: QVQLQQWGAGLLKPSETLSLTCAVYGGSLSGYPWSWIRQPPGKGLEWIGETDVSGWTDYNPSLKSRVTISVDTSKNQFSLKLSSVTAADTAVYYCARDGRRMGTPSFDIWGQGTMVTVSS
VL: DIQLTQSPSSVSASVGDRVTITCRASQGISSWLAWYQQKPGKAPKLLIYAASSLQSGVPSRFSGSGSGTDFTLTISSLQPEDFATYYCQQYVYFPPTFGGGTKVEIK
notes: as for B2
In the case of B4, the Kd (Human PD-L2-Fc [14]) is reported as 16 nM.
